Key:
Assay in all cases: holdup assay
Parameters in all cases: key: below the threshold = too weak to quantify, mostly under pKd 3.1 to 4
APBA3_1, O96018 = target: T1, APBA3_1, O96018
T1 sequence (O96018 389-490, limits assumed, looked up): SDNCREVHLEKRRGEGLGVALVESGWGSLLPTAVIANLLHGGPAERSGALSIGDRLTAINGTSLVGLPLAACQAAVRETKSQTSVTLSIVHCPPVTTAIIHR

CASK, O14936 = target: CASK, O14936
DLG1_3, Q12959 = target: DLG1_3, Q12959
DLG3_1, Q92796 = target: T2, DLG3_1, Q92796
T2 sequence (Q92796 125-227, limits assumed, looked up): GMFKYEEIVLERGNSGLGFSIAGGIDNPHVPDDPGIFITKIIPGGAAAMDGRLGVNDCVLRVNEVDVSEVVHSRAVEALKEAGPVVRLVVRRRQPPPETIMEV

DLG3_2, Q92796 = target: T3, DLG3_2, Q92796
T3 sequence (Q92796 221-321, limits assumed, looked up): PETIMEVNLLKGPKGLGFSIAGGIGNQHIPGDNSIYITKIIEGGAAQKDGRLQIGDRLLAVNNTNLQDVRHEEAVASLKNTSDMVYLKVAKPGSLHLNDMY

DLG4_1, P78352 = target: DLG4_1, P78352
FRMPD2_3, Q68DX3 = target: FRMPD2_3, Q68DX3
GORASP2, Q9H8Y8 = target: GORASP2, Q9H8Y8
Inadl_5, Q8NI35 = target: Inadl_5, Q8NI35
LNX1_1, Q8TBB1 = target: LNX1_1, Q8TBB1
LNX2_3, Q8N448 = target: T4, LNX2_3, Q8N448
T4 sequence (Q8N448 463-564, limits assumed, looked up): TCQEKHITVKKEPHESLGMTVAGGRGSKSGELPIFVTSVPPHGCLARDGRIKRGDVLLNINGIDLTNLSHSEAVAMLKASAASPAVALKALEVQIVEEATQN

MPDZ_5, O75970 = target: T5, MPDZ_5, O75970
T5 sequence (O75970 695-796, limits assumed, looked up): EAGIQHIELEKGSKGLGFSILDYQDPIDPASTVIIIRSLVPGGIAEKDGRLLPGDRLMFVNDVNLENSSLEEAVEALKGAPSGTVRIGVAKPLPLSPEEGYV

MPP7, Q5T2T1 = target: T6, MPP7, Q5T2T1
T6 sequence (Q5T2T1 134-230, limits assumed, looked up): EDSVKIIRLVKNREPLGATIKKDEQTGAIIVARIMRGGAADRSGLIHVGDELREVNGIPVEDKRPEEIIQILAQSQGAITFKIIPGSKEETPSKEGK

NHERF4_1, Q86UT5-2 = target: NHERF4_1, Q86UT5-2
PDZRN3_1, Q9UPQ7 = target: T7, PDZRN3_1, Q9UPQ7
T7 sequence (Q9UPQ7 244-349, limits assumed, looked up): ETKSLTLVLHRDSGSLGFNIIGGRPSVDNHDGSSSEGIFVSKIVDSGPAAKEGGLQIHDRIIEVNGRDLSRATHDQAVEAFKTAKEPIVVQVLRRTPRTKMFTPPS

PICK1, Q9NRD5 = target: PICK1, Q9NRD5
PTPN13_1, Q12923 = target: T8, PTPN13_1, Q12923
T8 sequence (Q12923 1088-1188, limits assumed, looked up): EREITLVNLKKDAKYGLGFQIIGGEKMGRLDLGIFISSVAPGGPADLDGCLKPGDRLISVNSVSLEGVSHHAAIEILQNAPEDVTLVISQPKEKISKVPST

RHPN1, Q8TCX5 = target: T9, RHPN1, Q8TCX5
T9 sequence (Q8TCX5 508-602, limits assumed, looked up): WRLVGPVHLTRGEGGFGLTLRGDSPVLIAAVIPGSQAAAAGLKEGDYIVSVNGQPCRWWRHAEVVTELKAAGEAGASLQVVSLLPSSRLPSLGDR

SCRIB_1, Q14160 = target: SCRIB_1, Q14160
SCRIB_2, Q14160 = target: SCRIB_2, Q14160
SCRIB_3, Q14160 = target: SCRIB_3, Q14160
SHANK1, Q9Y566 = target: T10, SHANK1, Q9Y566
T10 sequence (Q9Y566 658-767, limits assumed, looked up): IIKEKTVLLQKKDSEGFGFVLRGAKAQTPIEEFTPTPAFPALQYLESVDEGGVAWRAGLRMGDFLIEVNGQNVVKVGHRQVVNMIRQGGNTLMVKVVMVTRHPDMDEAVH

SNTG1, Q9NSN8 = target: T11, SNTG1, Q9NSN8
T11 sequence (Q9NSN8 52-150, limits assumed, looked up): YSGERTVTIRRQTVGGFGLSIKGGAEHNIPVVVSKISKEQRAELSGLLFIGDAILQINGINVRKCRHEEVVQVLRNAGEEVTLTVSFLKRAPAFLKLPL

SNX27, Q96L92 = target: SNX27, Q96L92
TJP2_1, Q9UDY2 = target: TJP2_1, Q9UDY2
[1] = plain residues with an end cap or a label only (N-terminal biotin on a linker: ttds)
[2] = plain residues with an end cap or a label only (N-terminal biotin on a linker: ahx)

Chain of DLG1_3, Q12959 (Q12959 457-571): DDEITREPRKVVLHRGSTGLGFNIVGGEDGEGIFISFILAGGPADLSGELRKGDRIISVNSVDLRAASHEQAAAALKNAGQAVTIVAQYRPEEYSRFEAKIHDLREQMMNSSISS
Chain of SCRIB_1, Q14160 (Q14160 718-814): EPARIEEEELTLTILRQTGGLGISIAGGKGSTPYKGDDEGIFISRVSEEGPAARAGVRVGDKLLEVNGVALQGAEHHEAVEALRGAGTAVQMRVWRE
Chain of CASK, O14936 (O14936 487-570): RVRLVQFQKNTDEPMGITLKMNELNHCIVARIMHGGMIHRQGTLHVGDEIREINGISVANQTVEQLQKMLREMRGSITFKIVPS
Chain of DLG4_1, P78352 (P78352 62-152): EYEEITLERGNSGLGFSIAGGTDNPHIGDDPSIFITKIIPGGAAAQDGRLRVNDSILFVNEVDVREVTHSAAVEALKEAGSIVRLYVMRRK
Chain of TJP2_1, Q9UDY2 (Q9UDY2 24-128): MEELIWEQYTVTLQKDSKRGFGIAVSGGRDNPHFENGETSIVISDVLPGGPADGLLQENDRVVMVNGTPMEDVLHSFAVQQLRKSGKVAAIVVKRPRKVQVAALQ
Chain of SCRIB_3, Q14160 (Q14160 999-1103): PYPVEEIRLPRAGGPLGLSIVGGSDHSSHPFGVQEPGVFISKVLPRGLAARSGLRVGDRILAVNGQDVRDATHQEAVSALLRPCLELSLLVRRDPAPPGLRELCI
Chain of LNX1_1, Q8TBB1 (Q8TBB1 261-371): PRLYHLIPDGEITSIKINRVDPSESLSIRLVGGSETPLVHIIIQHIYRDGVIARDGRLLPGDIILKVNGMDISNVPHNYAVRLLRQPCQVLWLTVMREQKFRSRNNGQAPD
Chain of Inadl_5, Q8NI35 (Q8NI35 673-780): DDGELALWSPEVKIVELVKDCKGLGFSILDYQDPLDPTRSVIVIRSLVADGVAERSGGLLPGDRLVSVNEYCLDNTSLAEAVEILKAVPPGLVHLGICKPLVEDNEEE
Chain of FRMPD2_3, Q68DX3 (Q68DX3 1073-1166): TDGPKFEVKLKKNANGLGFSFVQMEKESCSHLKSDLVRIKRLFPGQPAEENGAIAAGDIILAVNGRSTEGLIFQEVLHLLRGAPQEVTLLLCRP
Chain of PICK1, Q9NRD5 (Q9NRD5 17-115): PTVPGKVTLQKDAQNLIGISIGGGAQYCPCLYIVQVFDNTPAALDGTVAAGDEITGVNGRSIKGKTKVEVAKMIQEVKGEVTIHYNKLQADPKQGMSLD
Chain of SCRIB_2, Q14160 (Q14160 857-960): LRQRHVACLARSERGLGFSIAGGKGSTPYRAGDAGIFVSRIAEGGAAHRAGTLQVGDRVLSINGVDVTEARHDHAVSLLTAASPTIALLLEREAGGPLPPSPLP
Chain of NHERF4_1, Q86UT5-2 (Q86UT5 other isoform, or with tags, fused parts or gaps): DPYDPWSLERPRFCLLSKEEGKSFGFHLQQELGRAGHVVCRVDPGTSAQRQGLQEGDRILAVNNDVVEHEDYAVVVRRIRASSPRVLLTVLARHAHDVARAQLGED

## QSARYRDTEL [TJP2, Q9UDY2]
APBA3_1, O96018; [1]
  pKd: below the threshold
CASK, O14936; [1]
  pKd: below the threshold
DLG1_3, Q12959; [1]
  pKd: 3.83
DLG3_1, Q92796; [1]
  pKd: below the threshold
DLG3_2, Q92796; [1]
  pKd: below the threshold
DLG4_1, P78352; [1]
  pKd: 3.52
FRMPD2_3, Q68DX3; [1]
  pKd: below the threshold
GORASP2, Q9H8Y8; [1]
  pKd: below the threshold
Inadl_5, Q8NI35; [1]
  pKd: below the threshold
LNX1_1, Q8TBB1; [1]
  pKd: 3.58
LNX2_3, Q8N448; [1]
  pKd: 3.53
MPDZ_5, O75970; [1]
  pKd: below the threshold
MPP7, Q5T2T1; [1]
  pKd: below the threshold
NHERF4_1, Q86UT5-2; [1]
  pKd: 3.73
PDZRN3_1, Q9UPQ7; [1]
  pKd: 4.67
PICK1, Q9NRD5; [1]
  pKd: below the threshold
PTPN13_1, Q12923; [1]
  pKd: below the threshold
RHPN1, Q8TCX5; [1]
  pKd: 4.03
SCRIB_1, Q14160; [1]
  pKd: 4.46
SCRIB_2, Q14160; [1]
  pKd: 3.9
SCRIB_3, Q14160; [1]
  pKd: 4.65
SHANK1, Q9Y566; [1]
  pKd: 3.74
SNTG1, Q9NSN8; [1]
  pKd: 3.73
SNX27, Q96L92; [1]
  pKd: 4.69
TJP2_1, Q9UDY2; [1]
  pKd: below the threshold

## TEAKLTETNA [MYO18A, Q92614]
APBA3_1, O96018; [2]
  pKd: below the threshold
CASK, O14936; [2]
  pKd: below the threshold
DLG1_3, Q12959; [2]
  pKd: below the threshold
DLG3_1, Q92796; [2]
  pKd: below the threshold
DLG3_2, Q92796; [2]
  pKd: below the threshold
DLG4_1, P78352; [2]
  pKd: below the threshold
FRMPD2_3, Q68DX3; [2]
  pKd: below the threshold
GORASP2, Q9H8Y8; [2]
  pKd: below the threshold
Inadl_5, Q8NI35; [2]
  pKd: below the threshold
LNX1_1, Q8TBB1; [2]
  pKd: below the threshold
LNX2_3, Q8N448; [2]
  pKd: below the threshold
MPDZ_5, O75970; [2]
  pKd: below the threshold
MPP7, Q5T2T1; [2]
  pKd: below the threshold
NHERF4_1, Q86UT5-2; [2]
  pKd: below the threshold
PDZRN3_1, Q9UPQ7; [2]
  pKd: below the threshold
PICK1, Q9NRD5; [2]
  pKd: below the threshold
PTPN13_1, Q12923; [2]
  pKd: below the threshold
RHPN1, Q8TCX5; [2]
  pKd: below the threshold
SCRIB_1, Q14160; [2]
  pKd: below the threshold
SCRIB_2, Q14160; [2]
  pKd: below the threshold
SCRIB_3, Q14160; [2]
  pKd: below the threshold
SHANK1, Q9Y566; [2]
  pKd: below the threshold
SNTG1, Q9NSN8; [2]
  pKd: below the threshold
SNX27, Q96L92; [2]
  pKd: below the threshold
TJP2_1, Q9UDY2; [2]
  pKd: below the threshold

## IDNDTESTAL [ARHGAP17, Q68EM7]
APBA3_1, O96018; [1]
  pKd: below the threshold
CASK, O14936; [1]
  pKd: below the threshold
DLG1_3, Q12959; [1]
  pKd: below the threshold
DLG3_1, Q92796; [1]
  pKd: below the threshold
DLG3_2, Q92796; [1]
  pKd: below the threshold
DLG4_1, P78352; [1]
  pKd: below the threshold
FRMPD2_3, Q68DX3; [1]
  pKd: below the threshold
GORASP2, Q9H8Y8; [1]
  pKd: below the threshold
Inadl_5, Q8NI35; [1]
  pKd: below the threshold
LNX1_1, Q8TBB1; [1]
  pKd: below the threshold
LNX2_3, Q8N448; [1]
  pKd: below the threshold
MPDZ_5, O75970; [1]
  pKd: below the threshold
MPP7, Q5T2T1; [1]
  pKd: below the threshold
NHERF4_1, Q86UT5-2; [1]
  pKd: 4.16
PDZRN3_1, Q9UPQ7; [1]
  pKd: 4.44
PICK1, Q9NRD5; [1]
  pKd: below the threshold
PTPN13_1, Q12923; [1]
  pKd: below the threshold
RHPN1, Q8TCX5; [1]
  pKd: 4.47
SCRIB_1, Q14160; [1]
  pKd: 4.91
SCRIB_2, Q14160; [1]
  pKd: 3.61
SCRIB_3, Q14160; [1]
  pKd: 4.57
SHANK1, Q9Y566; [1]
  pKd: 5.53
SNTG1, Q9NSN8; [1]
  pKd: below the threshold
SNX27, Q96L92; [1]
  pKd: 4.97
TJP2_1, Q9UDY2; [1]
  pKd: below the threshold

Source: PMC9482650, “Quantitative fragmentomics allow affinity mapping of interactomes” (Nature Communications, 2022)
